Test results reported in the supplement of paper PMC10201428.
± gives the standard deviation of the averaged measurements.

B1: library; a variant is named by its letters at N, in order (parent)
chain: AATGTTGTTGATGCAACCATAAAGTGATATTTAATAATTATTTATAATCAGCAACTTAACCACAAAACAACCATATATTGATATNTCACAAAACAACCATAANTTGATATTTTTGTGAATCGAGTATTTCAGCAAAACTACTGCAGTAAGAA

Experiments:
[1] = variants of: B1; assay: relative integration efficiency (T-LR orientation) vs wild-type transposon end (log2 (normalized fold change)); transposon end mutated: left end; higher = more efficient transposition; details: with VchCAST RNA-guided transposition machinery (E. coli BL21(DE3) host, lacZ target)
Method in brief: (§1)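 Barcode abundances in input plasmids and in genomic integration junctions were obtained by PCR amplification and Illumina sequencing. These came from E. coli BL21(DE3) co-transformed with a T7-driven effector plasmid and a pUC57 donor carrying 1549 left-end or 1849 right-end transposon variants, then plated with 0.1 mM IPTG at 37°C for 18 h. Relative integration efficiency is the output/input fold change, normalised to reference barcodes and log-transformed.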

[2] = variants of: B1; assay: relative integration efficiency (T-RL orientation) vs wild-type transposon end (log2 (normalized fold change)); transposon end mutated: left end; higher = more efficient transposition; details: with VchCAST RNA-guided transposition machinery (E. coli BL21(DE3) host, lacZ target)
Method in brief: as §1

Variant | relative integration efficiency (log2) [1] | relative integration efficiency (log2) [2]
CG T9A G10C A11T T12A | -4.24 ± 1.9 | -1.59 ± 0.56
CG C87A A88C C89A A90C | 0.382 ± 0.34 | 0.292 ± 0.29
CG T12G | -0.01 ± 0.2 | -0.917 ± 0.57
CG T12C | -0.943 ± 0.57 | -0.0642 ± 0.048
CG T12A | 0.00533 ± 0.2 | -0.099 ± 0.056
CG T9A | -0.191 ± 0.61 | -0.00405 ± 0.092
CG T9C | 0.146 ± 0.38 | 0.242 ± 0.0041
CG T9G | 0.416 ± 0.19 | 0.28 ± 0.09
CG G10C A11T | < -10 | 0.833 ± 0.19
CG T20G A21C A22C A23C | -2.4 ± 0.83 | -3.18 ± 0.88
CG G106C A107T | -1.92 ± 1.4 | -1.78 ± 0.63
CG G24T T78G T104G | 0.121 ± 0.35 | -0.352 ± 0.37
CG G24C T25A G26C A27T | -2.36 ± 0.61 | -2.38 ± 0.98
CG G106C | -2.1 ± 1.4 | -1.81 ± 0.62
CG G106T | -1.19 ± 0.64 | -0.797 ± 0.42
CG G106A | -1.25 ± 1.6 | -0.788 ± 0.47
CG C72G A73T T74A A75T | -1.75 ± 0.9 | -1.77 ± 0.81
CG T25A G26C A27T T28A | -2.09 ± 0.86 | -2.28 ± 0.71
CG T8A T9A | -0.985 ± 0.14 | -0.297 ± 0.11
CG G80C A81T T82A A83T | -2 ± 1.1 | -1.88 ± 0.77

Variant | relative integration efficiency (log2) [1] | relative integration efficiency (log2) [2]
CG C71A C72A | -1.63 ± 1.1 | -1.05 ± 0.77
CG C94G | -1.16 ± 0.81 | -0.958 ± 0.57
CG C94T | -0.715 ± 0.59 | -0.669 ± 0.41
CG C94A | -0.54 ± 0.48 | -0.268 ± 0.25
CG G115T T116G | 0.0607 ± 0.61 | 0.243 ± 0.033
CG T6G G7T T8G T9G | < -10 | -7.37 ± 0.95
CG C121A A123G G124A T129C G132A A134C A135T A136T A137C C138A C141G G143T C144T | 0.708 ± 0.024 | 0.721 ± 0.23
CG T20G A21C | -2.47 ± 0.87 | -2.18 ± 0.77
CG C68G A69T | -0.877 ± 0.31 | -1.02 ± 0.41
CG G51C | -0.456 ± 0.66 | -0.42 ± 0.19
CG G51A | 0.634 ± 0.19 | 0.302 ± 0.085
CG G51T | 0.637 ± 0.29 | 0.00628 ± 0.18
CG G80T A81C | -1.7 ± 0.97 | -1.51 ± 0.7
CG C98A A99C T100G A101C | -1.33 ± 0.029 | -2.27 ± 0.92
CG C97A | -0.467 ± 1.2 | -0.235 ± 0.37
CG C97T | -0.391 ± 0.74 | -0.324 ± 0.13
CG C97G | -0.468 ± 0.14 | -0.455 ± 0.23
CG C89A A90C A91C A92C | -0.143 ± 0.65 | -0.537 ± 0.37
CG T3A G4C | -0.231 ± 0.33 | 0.0698 ± 0.073
CG T8A T9A G10C A11T | < -10 | -6.573 ± 0.021

Variant | relative integration efficiency (log2) [1] | relative integration efficiency (log2) [2]
TG G24A T30A A70C T76A T84A C87A | 0.298 ± 0.13 | -0.172 ± 0.16
CG G117T A118C A119C T120G C121A G122T A123C G124T T125G | 0.16 ± 0.029 | 0.0955 ± 0.074
CG G106T A107C T108G A109C | -2.4 ± 0.46 | -2.01 ± 0.81
CG G115C | 0.709 ± 0.14 | 0.417 ± 0.026
CG G115T | 0.42 ± 0.24 | 0.238 ± 0.1
CG G115A | 0.113 ± 0.17 | -0.259 ± 0.26
CG G115C T116A | 0.199 ± 0.12 | -0.00924 ± 0.092
CG T12A G13A T30A T31C T32A | -1.04 ± 0.35 | -0.578 ± 0.26
CG G26T A27C T28G A29C | -1.37 ± 0.4 | -1.9 ± 1.2
CG G4C | 0.0545 ± 0.11 | -0.131 ± 0.036
CG G4A | -0.235 ± 0.11 | -0.0961 ± 0.035
CG G4T | 0.222 ± 0.16 | -0.172 ± 0.075
CG G24T T25G G26T A27C | -2.96 ± 1.7 | -2.31 ± 0.84
CG G51C C52G A53T A54T | -0.796 ± 0.93 | -0.34 ± 0.37
CG G117T A118C A119C T120G | 0.0571 ± 0.28 | 0.0586 ± 0.085
CG G10T | -1.38 ± 0.3 | -0.454 ± 0.26
CG G10A | -0.534 ± 0.039 | -0.083 ± 0.089
CG G10C | -1.66 ± 0.034 | -0.357 ± 0.19
